Measured values reported in the Human Domainome abundance scans (Beltran et al. 2025).
± gives the uncertainty stated by the source.

B1: Zinc finger homeobox protein 4, residues 2086 to 2141; numbered along this chain, Q86UP3 (parent)
chain: RPRTRITDDQLKILRAYFDINNSPSEEQIQEMAEKSGLSQKVIKHWFRNTLFKERQ

Variants of: B1
Assay: abundance fitness (aPCA) (normalised: wild type 0, dead -1); higher = more abundant; growth selection in yeast, the domain comes from the species named
Details: Homo sapiens
For A16Q, the abundance fitness was 0.03 ± 0.11. With A16R the abundance fitness was 0.096 ± 0.076. For A16S, the abundance fitness was 0.129 ± 0.068. A16G gave an abundance fitness of 0.035 ± 0.13. Variant A16M has an abundance fitness of 0.124 ± 0.12. In the case of A16Y, the abundance fitness is reported as -0.013 ± 0.095. A16L showed an abundance fitness of -0.051 ± 0.071. For A16D, the abundance fitness was -0.029 ± 0.11. Variant A16P has an abundance fitness of -0.028 ± 0.082. For A16K, the abundance fitness was -0.129 ± 0.18. A16N gave an abundance fitness of 0.16 ± 0.093. Variant A16C has an abundance fitness of -0.075 ± 0.077. In the case of A16H, the abundance fitness is reported as 0.108 ± 0.083. A16V gave an abundance fitness of -0.211 ± 0.089. A16T showed an abundance fitness of -0.124 ± 0.083. Work on A16I yielded an abundance fitness of -0.071 ± 0.11. A16E gave an abundance fitness of 0.178 ± 0.14. In the case of R15Q, the abundance fitness is reported as 0.022 ± 0.093. In the case of R15L, the abundance fitness is reported as -0.081 ± 0.072. R15I showed an abundance fitness of -0.296 ± 0.16. With R15H the abundance fitness was -0.337 ± 0.15. For R15S, the abundance fitness was -0.012 ± 0.082. For R15M, the abundance fitness was 0.138 ± 0.093. R15W showed an abundance fitness of -0.133 ± 0.081. Variant R15V has an abundance fitness of -0.151 ± 0.073. In the case of R15C, the abundance fitness is reported as -0.414 ± 0.13. In the case of R15D, the abundance fitness is reported as -0.168 ± 0.11. Variant R15P has an abundance fitness of -0.939 ± 0.12. For R15F, the abundance fitness was -0.245 ± 0.16. With R15Y the abundance fitness was -0.2 ± 0.11. For R15G, the abundance fitness was -0.093 ± 0.07. With R15A the abundance fitness was -0.215 ± 0.076. In the case of R15K, the abundance fitness is reported as 0.018 ± 0.093. For R15T, the abundance fitness was -0.065 ± 0.088. With R15E the abundance fitness was -0.098 ± 0.089. R15N gave an abundance fitness of -0.07 ± 0.15. P24D showed an abundance fitness of -0.844 ± 0.14. P24A gave an abundance fitness of -0.294 ± 0.08. For P24T, the abundance fitness was -0.474 ± 0.084. With P24G the abundance fitness was -0.793 ± 0.14. Variant P24N has an abundance fitness of -0.691 ± 0.091. Work on P24H yielded an abundance fitness of -0.427 ± 0.08. Work on P24S yielded an abundance fitness of -0.553 ± 0.072. With P24Y the abundance fitness was -0.51 ± 0.087. With P24F the abundance fitness was -0.538 ± 0.098. With P24E the abundance fitness was -0.326 ± 0.18. For P24K, the abundance fitness was -0.922 ± 0.15. In the case of P24R, the abundance fitness is reported as -0.642 ± 0.11. With P24V the abundance fitness was -0.32 ± 0.081. Variant P24I has an abundance fitness of -0.337 ± 0.092. Work on P24M yielded an abundance fitness of -0.676 ± 0.12. Work on P24W yielded an abundance fitness of -0.435 ± 0.18. With P24C the abundance fitness was -0.462 ± 0.12. With P24L the abundance fitness was -0.259 ± 0.067. Variant K12M has an abundance fitness of -0.071 ± 0.091. Variant K12P has an abundance fitness of -0.16 ± 0.093. K12G gave an abundance fitness of -0.146 ± 0.068. K12S showed an abundance fitness of -0.09 ± 0.081. Variant K12Y has an abundance fitness of -0.422 ± 0.13. K12N showed an abundance fitness of -0.007 ± 0.11. For K12I, the abundance fitness was -0.094 ± 0.15. K12V showed an abundance fitness of -0.045 ± 0.075. Variant K12Q has an abundance fitness of -0.029 ± 0.11. K12L showed an abundance fitness of 0.005 ± 0.073. Work on K12E yielded an abundance fitness of -0.076 ± 0.1. K12W showed an abundance fitness of -0.379 ± 0.082. K12R showed an abundance fitness of -0.039 ± 0.065. Work on K12H yielded an abundance fitness of -0.34 ± 0.13. For Q28M, the abundance fitness was -0.153 ± 0.11. Q28E showed an abundance fitness of -0.155 ± 0.12. Q28G showed an abundance fitness of -0.178 ± 0.072. In the case of Q28V, the abundance fitness is reported as -0.033 ± 0.074. Variant Q28H has an abundance fitness of -0.046 ± 0.1. Q28C gave an abundance fitness of -0.244 ± 0.089. Q28A gave an abundance fitness of -0.092 ± 0.076. In the case of Q28W, the abundance fitness is reported as -0.38 ± 0.085. In the case of Q28K, the abundance fitness is reported as 0.064 ± 0.12. Q28Y gave an abundance fitness of -0.236 ± 0.12. Variant Q28D has an abundance fitness of -0.12 ± 0.11. Q28F gave an abundance fitness of -0.416 ± 0.18. For Q28L, the abundance fitness was -0.102 ± 0.077. Q28I showed an abundance fitness of 0.06 ± 0.17. Work on Q28R yielded an abundance fitness of 0.037 ± 0.065. With Q28S the abundance fitness was -0.095 ± 0.077. With Q28T the abundance fitness was -0.034 ± 0.11. Variant Q28N has an abundance fitness of -0.329 ± 0.14. For Q28P, the abundance fitness was -0.533 ± 0.094. With I29N the abundance fitness was -0.462 ± 0.2. With I29H the abundance fitness was -0.347 ± 0.25. For I29W, the abundance fitness was -0.16 ± 0.091. Work on I29Q yielded an abundance fitness of -0.147 ± 0.12. Work on I29G yielded an abundance fitness of -0.605 ± 0.07. In the case of I29T, the abundance fitness is reported as -0.266 ± 0.1. I29M gave an abundance fitness of -0.081 ± 0.11. For I29R, the abundance fitness was -0.21 ± 0.068. For I29E, the abundance fitness was -0.025 ± 0.091. Variant I29A has an abundance fitness of -0.376 ± 0.075. I29C gave an abundance fitness of -0.149 ± 0.1. For I29D, the abundance fitness was -0.744 ± 0.12. Work on I29L yielded an abundance fitness of 0.002 ± 0.08. I29Y showed an abundance fitness of 0.048 ± 0.17. I29K gave an abundance fitness of -0.226 ± 0.13. Variant I29P has an abundance fitness of -0.814 ± 0.14. For I29F, the abundance fitness was -0.02 ± 0.13. In the case of N21K, the abundance fitness is reported as -0.187 ± 0.17. Variant N21C has an abundance fitness of -0.09 ± 0.18. Variant N21W has an abundance fitness of -0.111 ± 0.18. N21Y showed an abundance fitness of -0.156 ± 0.11. Variant N21T has an abundance fitness of 0.009 ± 0.089. With N21H the abundance fitness was -0.117 ± 0.095. Work on N21E yielded an abundance fitness of 0.122 ± 0.26. N21D showed an abundance fitness of -0.028 ± 0.13. N21S gave an abundance fitness of -0.048 ± 0.083. N21V showed an abundance fitness of -0.189 ± 0.12. For N21I, the abundance fitness was -0.114 ± 0.12. With N21Q the abundance fitness was -0.247 ± 0.17. With N21L the abundance fitness was -0.101 ± 0.091. N21F showed an abundance fitness of -0.191 ± 0.12. N21A showed an abundance fitness of -0.031 ± 0.12. In the case of N21M, the abundance fitness is reported as 0.203 ± 0.18. In the case of N21P, the abundance fitness is reported as -0.494 ± 0.097. Work on N21G yielded an abundance fitness of -0.261 ± 0.11. Variant I20V has an abundance fitness of 0.008 ± 0.069. I20M showed an abundance fitness of -0.007 ± 0.13. With I20R the abundance fitness was -0.007 ± 0.067. For I20H, the abundance fitness was -0.134 ± 0.12. With I20N the abundance fitness was 0.03 ± 0.11. With I20K the abundance fitness was 0.153 ± 0.11. I20Q showed an abundance fitness of 0.054 ± 0.1. In the case of I20W, the abundance fitness is reported as -0.273 ± 0.09. Variant I20L has an abundance fitness of -0.051 ± 0.081. With I20F the abundance fitness was -0.006 ± 0.09. In the case of I20A, the abundance fitness is reported as 0.105 ± 0.079. Work on I20C yielded an abundance fitness of -0.095 ± 0.084. I20T gave an abundance fitness of 0.077 ± 0.12. I20E gave an abundance fitness of 0.015 ± 0.12. For I20P, the abundance fitness was 0.022 ± 0.11. I20D gave an abundance fitness of -0.276 ± 0.11. For I20Y, the abundance fitness was -0.113 ± 0.12. I20G showed an abundance fitness of -0.03 ± 0.066. Variant F18Q has an abundance fitness of 0.011 ± 0.11. Work on F18S yielded an abundance fitness of -0.142 ± 0.078. F18D gave an abundance fitness of -0.227 ± 0.098. F18Y showed an abundance fitness of 0.033 ± 0.11. For F18E, the abundance fitness was -0.305 ± 0.094. With F18R the abundance fitness was -0.018 ± 0.067. With F18A the abundance fitness was -0.026 ± 0.073. Variant F18I has an abundance fitness of -0.313 ± 0.1. In the case of F18W, the abundance fitness is reported as -0.142 ± 0.086. Variant F18K has an abundance fitness of -0.044 ± 0.15. F18M showed an abundance fitness of -0.043 ± 0.1. F18N showed an abundance fitness of -0.268 ± 0.1. With F18G the abundance fitness was -0.184 ± 0.065. With F18P the abundance fitness was -0.224 ± 0.098. Work on F18C yielded an abundance fitness of -0.179 ± 0.091. F18T showed an abundance fitness of 0.014 ± 0.1. E31D gave an abundance fitness of -0.07 ± 0.1. With E31R the abundance fitness was -0.007 ± 0.07. Work on E31F yielded an abundance fitness of -0.191 ± 0.11. In the case of E31K, the abundance fitness is reported as 0.108 ± 0.12. E31N showed an abundance fitness of 0.011 ± 0.15. For E31L, the abundance fitness was -0.089 ± 0.076. With E31C the abundance fitness was -0.141 ± 0.099. Variant E31H has an abundance fitness of -0.109 ± 0.14. E31T showed an abundance fitness of -0.182 ± 0.12. In the case of E31V, the abundance fitness is reported as -0.031 ± 0.075. With E31A the abundance fitness was -0.104 ± 0.087.
